The nanobody polyreactivity screen of Harvey et al. (2022)

Assay: yeast display, Sf9 membrane polyspecificity reagent, FACS + sequencing; frameworks hold sequencing errors
Outline: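 Nanobodies came from a synthetic yeast display library in Saccharomyces cerevisiae BJ5465, induced with galactose for 36–48 hours and stained for 1 hour at 4 °C with 10% biotinylated, detergent-solubilized Sf9 membrane reagent. Cells were enriched on streptavidin microbeads and then FACS-sorted, with low and high (top ~1%) gates set on anti-HA fluorescence for expression and streptavidin fluorescence for reagent binding. Each polyreactivity label reflects the gate a clone came from. Genes were amplified by colony PCR, sequenced by MiSeq 2 × 250 and filtered by CDR length.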

Sequence | polyreactivity (PSR sort gate)
QVQLVESGGGLVQAGGSLRLSCAASGRTFISNAMGWYRQAPGKERELVAAITSTGGRTYYADSVKGRFTISRDNAKNTVYLQMNSLKPEDTAVYYCNTGKRRFYSMDYWGQGTQVTVSS | high polyreactivity
QVQLVESGGGLVQAGGSLRLSCAASGLTFVWYAMGWYRQAPGKERELVASITRRGVSTYADSVKGRFTISRDNAKNTVYLQMNSLKPEDTAVYYCKAQLIYKKGWYDYWGQGTQVTVSS | high polyreactivity
QVQLVESGGGLVQAGGSLRLSCAASGSIFEYYTMGWYRQAPGKEREFVAAITFTGDSTYYADSVKGRFTISRDNAKNTVYLQMNSLKPEDTAVYYCNADSVTYDGEYDYWGQGTQVTVSS | low polyreactivity
QVQLVESGGGLVQAGGSLRLSCAASGNILEYNAMGWYRQAPGKERELVAAISRGGITNYADSVKGRFTISRDNAKNTVYLQMNSLKPEDTAVYYCATRWIGYTSQWDHFEYDYWGQGTQVTVSS | low polyreactivity
QVQLVESGGGLVQAGGSLRLSCAASGRIYTWNAMGWYRQAPGKERDLVASISRSGTSTYYADSVKGRNTISRDNALTTVYLQMNSLKPEDTAVYYCAAKTSRGDRTQVEYWGQGTQVTVSS | high polyreactivity
QVQLVESGGGLVQAGGSLRLSCAASGSIFRINAMGWYRQAPGKEREFVAAISSRGGSTYYADSVKGRFTISRDNAKNTVYLQMKSLKPEDTAVYYCAKYASVGYGRYPYDYWGQGTQVTVSS | high polyreactivity
QVQLVESGGGLVQAGGSLRLSCAASGSTFPANAMGWYRPAPGKERELVATSSWSGGRTYYADSVKGRFTISRDNAKNTVDLQMNSLKPEDTAVYYCAKGYYWLSTYGDSRYGYWGQGTQVTVSS | high polyreactivity
QVQLVESGGGLVQAGGSLRLSCAASGRTFNYYGMGWYRQAPGKERELVAAISRGGTTNYADSVKGRFTISRDNAKNTVYLQMNSLKPEDTAVYYCAKGRSHWHSYQYVRPNYDYWGQGTQVTVSS | low polyreactivity
QVQLVESGGGLVQAGGSLRLSCAASGRIFRRYAMGWYRQAPGKERELVAAITRSGGSTYYADSVKGRFTISRDNAKNTVYLQMNSLKPEDTAVYYCAARQVGRYYYLSRYYYWGQGTQVTVSS | high polyreactivity
QVQLVESGGGLVQAGGSLRLSCAASGSTFGIYAMGWYRQAPGKERELVATITGRGGRTYYADSVKGRFTISRDNAKNTVYLQMNSLKQEDTAVYYCNAAYRGYYRYDYWGQGTQVTVSS | high polyreactivity
QVQLVESGGGLVQAGGSLRLSCAASAFILQRNAMGWYRQAHGKERELVAAISSRGGSTYYADSVKGRFTISRDNAKNTVYLQMNSLKPEDTAVYYCNRRSRAHGYGSQYDYWGQGTQVTVSS | low polyreactivity
QVQLVESGGGLVQAGGSLRLSCAASGRIFFYYAMGWYRQAPGKERELVATISYSGGCTYYADSVKGRFTISRDNAKNTVYLQMNSLKPEETAVYYCNARWGTPYYIQDFDYWGQGTQVTVSS | low polyreactivity
QVQLVESGGGLVQAGGSLRLSCAASGSTFYIYAMGWYRQAPGKERELVARISGSTDYADSVKGRFTISRDNAKNTVYLQMNSLKPEDTAVYYCAARYVYPYWYGDYYWGQGTQVTVSS | low polyreactivity
QVLLQESGGGLVQAGGSLRLSCAASGSIFLIYTMGWYRHAPVKEREFVAGITLGTTTYNADSVKGRFTISRDNVKNTVYLKMNILKPEDTEVYYCAVAVGHYTEFWYWGQGTQVTMSS | high polyreactivity
QVQLEESGGGLVQAGGSLRLSCAASGRSFNHNAMGWYRQAPGKERELVAAINQSGSSTYYADSVKGRFTISRDNAKNTVYLQMNSLKREDTAVYYCAAVCNGVDYEYWGQGTQVTVSS | low polyreactivity
QVQLVESGGGLVQAGGSLRLSCAASGIIFGYYAMGWYRQAPGKERELVAAINQDGSSTYYADSVKGRFTISRDNAKNTVYFQMNSLKPEDTAVYYCNARGVPRQDARMGYWGQGTQVTVSS | low polyreactivity
QVQLVESGGGLVQAGGSLRLSCAASGYIFPPNAMGWYRQAPGKDRELVAAIRRSTGSTYYADSVKGRFTISRDNAKNTVYLQMNSLKPEDTAVYYCAAYYGYITFGYTYEYWGQGSQVTVSS | high polyreactivity
QVQLVESGGGLVQAGGSLRLSCAASASTFWRYAMGWYRQAPGKERELVAAISWNGGSTYYADSVKGRFTISRDNAKNTVYLQMNSLKPEDTAVYYCARGYSWSVGYPRVQDMDYWGQGTQVTVSS | high polyreactivity
QVHLVESGGGLVQAGGSLRLTCAASGSTFASNVMGWYRQAPGKERELVAAISRRGTRTNYADSVKGRFTISLDNAKNTVYLQMKSLKPEDTAVYYCNTASGTNVVYEFGYWGQGTQVTVSS | high polyreactivity
QVQLVESGGGLVQAGGSLRLSCAASGRIFTYNARGWYRQAPGKERELVAAITYRGSSTYYADSVKGRFTISRDIAKNTVYLQMNSLKAEDTAVYYCAAVFSGFYYAYDYWGQGTQVTVSS | high polyreactivity
QVQLVESGGGLVQAGGSLRLSCAASGRIFYIYAMGWYRQAPGKERELVAAISSGGTTNYADSVKGRFTISRDNAKNTVYLQMNSLKPEDTSVDYCNAVRGEKMGYWGQGTQVTVSS | high polyreactivity
QVQLVETGGGLVHAGGSLRLSCAASGSIFYAYDMGWYRQAPGKERELVAAINWSGDSTYYADSVKGRVTISRDNANNTVYLQMNSLKPEDTAVYYCAAVSGSGDSGEYDYWGQGTQVTVSS | low polyreactivity

Sequence | polyreactivity (PSR sort gate)
QVQLVESGGGLVQAGGSLRLSCAASGSIFSYYAMGWYRQAPGKERELVAAITRSGSKNYADSVKGRFTISRDNAKNTVYLQMNSLKPEDTAVYYCAAETDESDWYYYWGQGTQVTVSS | high polyreactivity
QVQLVESGGGLVQAGGSLRLSCAASGRIFYPNAMGWYRQAPGKERELVAAITWRGGRTYYADSVKGRFTISRDNAKNTVYLQMNSLKPEDTAVYYCNAVAPGKYNHWGQGTQVTVSS | high polyreactivity
QVQLVESGGGLVQAGGSLRLSCAASGLTFPYNLMGWYRQAPGKERELVASITSVGTTDYADSVKGRFTISRDNAKNTVYLQMNSLKPEDTAVYYCAADVTMFYWWYGKEDYDFWGQGNQVTVSS | low polyreactivity
QVQLVESGGGLVQAGGSLRLSCAASGSTNGRNAIGWSRQAPRKERELVAAISSGGSTSYADSVKVRFTISRDNAKYTDYLQMNSLKPVDTAVYYCAAQSVGSQYDYWGQGTQVTVSS | low polyreactivity
QVQLVESGGGLVQAGGSLRLTCAASGSIFVNNAMGWYRQAPGKEMELVAAIRRSGGNTYYADSVKGRFTISRDNAKNTVYLQMNSLIPEDTAVYYCNVVRRADSIRAKSRDYWGQGTQVTVSS | high polyreactivity
QVQLVESGGGLVQAGGSLRLSCAASGSTFYVYAMGWYRQAPGKARELVAAIRSGGSTNYADSVKGRFTISRDNAKNTVYFQLNSLKPEDTAVYYCNADTWLYRYDYWGQGTQVTVSS | low polyreactivity
QVQLVESGGGLVQAGGSLRLSCAASGYTFYGYAMGWYRQAPGKERELVAAISWSGTNTNYADSVKGRFTISRDNAKNTVYLQMNSLKPEDTAVYYCAAGYYYRGFHTEDYWGQGTQVTVSS | high polyreactivity
QVQLVESGGGLVQAGGSLRLSCAASGRNFIDYMGWYRQAPGKERELVAAIDSGASTYYADSVKGRFTISRDNAKNTVYLQMNSLNPEDTAVYYCAADVVYDYGGMDYWGQGTLVTVSS | low polyreactivity
QVQLVESGGGLVQARGSLRLSCAASGSTFPYYAMGWYRQAPGKARELVAAITSSTGRTYYADSVKGRFTISRDNAKNTVYLQMNSLKPEDTAVYYSNAEVYSDPYNDHDYWGQGTQVTVSS | low polyreactivity
QVQLVESGGGLVQAGGSLRLSCAASGSTFYGYAMGWYRQAPGKERELVAAISWRGGRTNYADSVKGRFTISRDNAKNTVYLQMNSLKPEDTAFYYCAARSYGITDYGMYSWGQGTQVTVSS | high polyreactivity
QVQLVESGGGLVQAGGSLRLSCAASGSTFDVNAMGWYRPAPGKERELVAAISWNSGSTYYADSVKGRFTISRDNAKNTVYLQLNSLKPEDTAVYYCAATYGTGRRSKYGYWGQGTQVTVSS | high polyreactivity
QVQLVESGGGLVQAGGSLRLSCAASGRIVSLNAMGWNRQAPGKERELVAGIRKRGRSTYYADSVKGRFTISRDNAKNTVYLQMNSLKPEDTAVYYCAAQPALTYRFYYWGQGTQVTVSS | high polyreactivity
QVQLVESGGGLVQAGGSLRLICAASGRIFRIYAIGWYRQAPGKERELVARITYSGGSTYYADSVKGRFTISRDNAKNSVYLLMNSLKPEETAVYYCAADWLGYQYGYWGQGTQVTVSS | low polyreactivity
QVQLVESGGGLVQAGGSLRLSSAASGSIFGSYAMGWYRQAPGKERELVAAITSGGSTYADSVKGRFTISRDNAKNTVYLQMNSLKPEDTAVYYCNAKFYQSTSNLVQSEYDYWGQGTQVTVSS | low polyreactivity
QVQLVESAGGLVQAGGSLRLSCAASGFTFRYYAMGWYRQAPGKERELVAAISWSGGRTYYADSVKWRLTISRDNANNTVYLQMNSLKPEDTADYYCAADGYQYFYGDFDYWGQGTQVTVSS | high polyreactivity
QVQLVESGGGLVQAGGSLRLSCAASGSIFLLYAMGWYRQAPGKERELVAAISYSGGATYYADSVKGRFTISRDNAKYTVYLQMNILKPEDTAVYYCAAEAYDDYDYWGQGTQVTVSS | low polyreactivity
QVQLVESGGGLVQAGGSLRLSSAASGRIFYRNAMGWYRQAPGKERELVASITSGGRTNYADSVKGRFTFSRDNAKNTVYLHMNSLKPEDTAVYYCAAPPPYSVRTFRFYYWGQGTQVTVSA | high polyreactivity
QVQLVESGGGLVQAGGSLRLSCAASGFIFRLYALGWYRQAPGKERELVAAIRSAGSTYYADSVKGRFTISRDNAKNTVYLQMNSLKPEDTPVYYCAARSGHTYYFIGNYWGQGTQVTVSS | high polyreactivity
QVQLVESGGGLVQAGGSLRLSCAASGFIFAKYAMGWYRQAPGKERALGAAITSGGSTNYADSVKGRFTISRDNAKNTLYLQMNSLNPEDTAVYSCNRGFDWCYRYRHYDYWGQGTQVTVSS | low polyreactivity
QVQLVESGGCLVQAGGSLRLSCAASGNTFTSYAMGWYRQAPGKERELVAAISASGSSTYYADSVKGRFTISRDNAKNTVYLQMNSLKPEDTAVYYCNAVKYRVESSYDYWGQGTQVTVSS | low polyreactivity
QVQLVESGVGLVQAGGSLRLSCAASGSIFRYYAMGWYRQAPGKEREFVADITWSGTSTYYADSVKGRFTISRDNAKNTVYFQMNSLKPEDTAVFYCNKYRSYWSGPSYWREYDYWGQGTQVTVSS | high polyreactivity
